Reference: the supplement of paper PMC9112550, “Optimization of the antimicrobial peptide Bac7 by deep mutational scanning” (BMC Biology, 2022)

Test system: Escherichia coli TOP10
Assay: shrunken log2 fold change of peptide-encoding DNA abundance (4.5 h post-induction vs induction); higher = less antimicrobial activity (less host growth inhibition)
Conditions: time post-induction: 4.5 h; library: site-saturation at positions 5, 18, 19, 20
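Note: peptides expressed intracellularly from a pBAD plasmid library in pooled LB shake-flask culture, induced with 0.3% L-arabinose, DNA abundance read by NGS, three biological replicates, DESeq2 with apeglm shrinkage.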

## RRIRDRPPRLPRPRPRPPQNPRP
  shrunken log2 fold change: 0.409

## RRIRIRPPRLPRPRPRPHDRPRP
  shrunken log2 fold change: -0.289

## RRIRWRPPRLPRPRPRPSAYPRP
  shrunken log2 fold change: -0.549

## RRIRNRPPRLPRPRPRPFHEPRP
  shrunken log2 fold change: -0.00822

## RRIRKRPPRLPRPRPRPPQSPRP
  shrunken log2 fold change: 0.863

## RRIRMRPPRLPRPRPRPRCHPRP
  shrunken log2 fold change: 0.133

## RRIRFRPPRLPRPRPRPTDYPRP
  shrunken log2 fold change: -0.578

## RRIRVRPPRLPRPRPRPETMPRP
  shrunken log2 fold change: 0.0389

## RRIRGRPPRLPRPRPRPTIPPRP
  shrunken log2 fold change: -0.0601

## RRIRIRPPRLPRPRPRPEITPRP
  shrunken log2 fold change: -0.461

## RRIRGRPPRLPRPRPRPCWPPRP
  shrunken log2 fold change: 0.455

## RRIRPRPPRLPRPRPRPNDRPRP
  shrunken log2 fold change: -0.0965

## RRIRERPPRLPRPRPRPEKIPRP
  shrunken log2 fold change: 0.0141

## RRIRVRPPRLPRPRPRPMNQPRP
  shrunken log2 fold change: -0.0672

## RRIRHRPPRLPRPRPRPNYWPRP
  shrunken log2 fold change: -0.358

## RRIRERPPRLPRPRPRPWGCPRP
  shrunken log2 fold change: -0.364

## RRIRPRPPRLPRPRPRPEVCPRP
  shrunken log2 fold change: 0.138

## RRIRPRPPRLPRPRPRPFFHPRP
  shrunken log2 fold change: -0.229

## RRIRHRPPRLPRPRPRPEIVPRP
  shrunken log2 fold change: -0.0182

## RRIRLRPPRLPRPRPRPECHPRP
  shrunken log2 fold change: 0.0679

## RRIRMRPPRLPRPRPRPSYLPRP
  shrunken log2 fold change: -0.336

## RRIRMRPPRLPRPRPRPVFNPRP
  shrunken log2 fold change: -0.0958

## RRIRERPPRLPRPRPRPEMIPRP
  shrunken log2 fold change: -0.0286

## RRIRKRPPRLPRPRPRPPRAPRP
  shrunken log2 fold change: 1.15

## RRIRERPPRLPRPRPRPCHIPRP
  shrunken log2 fold change: -0.439

## RRIRTRPPRLPRPRPRPQFWPRP
  shrunken log2 fold change: -0.00273

## RRIRHRPPRLPRPRPRPSGCPRP
  shrunken log2 fold change: -0.162

## RRIRMRPPRLPRPRPRPPMGPRP
  shrunken log2 fold change: 0.921

## RRIRGRPPRLPRPRPRPKKHPRP
  shrunken log2 fold change: 0.655

## RRIRQRPPRLPRPRPRPHTLPRP
  shrunken log2 fold change: -0.263

## RRIRKRPPRLPRPRPRPEFAPRP
  shrunken log2 fold change: 1.03

## RRIRLRPPRLPRPRPRPKVLPRP
  shrunken log2 fold change: -0.128

## RRIRCRPPRLPRPRPRPIWSPRP
  shrunken log2 fold change: 0.162

## RRIRLRPPRLPRPRPRPACLPRP
  shrunken log2 fold change: 0.00436

## RRIRVRPPRLPRPRPRPTVMPRP
  shrunken log2 fold change: 0.126

## RRIRIRPPRLPRPRPRPIEMPRP
  shrunken log2 fold change: -0.00843

## RRIRKRPPRLPRPRPRPWLTPRP
  shrunken log2 fold change: 0.0883

## RRIRGRPPRLPRPRPRPECWPRP
  shrunken log2 fold change: 1.92

## RRIRVRPPRLPRPRPRPLEGPRP
  shrunken log2 fold change: 0.138

## RRIRGRPPRLPRPRPRPITHPRP
  shrunken log2 fold change: 0.0909

## RRIRGRPPRLPRPRPRPKSIPRP
  shrunken log2 fold change: -0.0446

## RRIRTRPPRLPRPRPRPEETPRP
  shrunken log2 fold change: 0.0325

## RRIRNRPPRLPRPRPRPVYQPRP
  shrunken log2 fold change: -0.00185

## RRIRKRPPRLPRPRPRPFGWPRP
  shrunken log2 fold change: 0.682

## RRIRKRPPRLPRPRPRPWRFPRP
  shrunken log2 fold change: 0.234

## RRIRCRPPRLPRPRPRPWMSPRP
  shrunken log2 fold change: -0.824

## RRIRDRPPRLPRPRPRPYPQPRP
  shrunken log2 fold change: -0.582

## RRIRRRPPRLPRPRPRPQGRPRP
  shrunken log2 fold change: 0.544

## RRIRNRPPRLPRPRPRPIENPRP
  shrunken log2 fold change: 0.0211

## RRIRIRPPRLPRPRPRPKLQPRP
  shrunken log2 fold change: 0.173

## RRIRTRPPRLPRPRPRPIGSPRP
  shrunken log2 fold change: 0.0344

## RRIRKRPPRLPRPRPRPMCNPRP
  shrunken log2 fold change: 0.26

## RRIRARPPRLPRPRPRPLLAPRP
  shrunken log2 fold change: 0.949

## RRIRHRPPRLPRPRPRPVCQPRP
  shrunken log2 fold change: -0.147

## RRIRFRPPRLPRPRPRPMCWPRP
  shrunken log2 fold change: -0.189

## RRIRRRPPRLPRPRPRPYCQPRP
  shrunken log2 fold change: -0.664

## RRIRERPPRLPRPRPRPHMDPRP
  shrunken log2 fold change: -1.21

## RRIRSRPPRLPRPRPRPRGGPRP
  shrunken log2 fold change: 0.84

## RRIRHRPPRLPRPRPRPAWLPRP
  shrunken log2 fold change: 0.163

## RRIRWRPPRLPRPRPRPSYMPRP
  shrunken log2 fold change: -0.502

## RRIRNRPPRLPRPRPRPHAQPRP
  shrunken log2 fold change: -0.835

## RRIRGRPPRLPRPRPRPHFCPRP
  shrunken log2 fold change: 0.117

## RRIRWRPPRLPRPRPRPDGQPRP
  shrunken log2 fold change: -0.000921

## RRIRGRPPRLPRPRPRPPRFPRP
  shrunken log2 fold change: 1.04

## RRIRERPPRLPRPRPRPMDGPRP
  shrunken log2 fold change: 0.0211

## RRIRNRPPRLPRPRPRPAQYPRP
  shrunken log2 fold change: 0.103

## RRIRYRPPRLPRPRPRPIPIPRP
  shrunken log2 fold change: -0.168

## RRIRFRPPRLPRPRPRPELMPRP
  shrunken log2 fold change: 0.179

## RRIRSRPPRLPRPRPRPICAPRP
  shrunken log2 fold change: 0.47

## RRIRGRPPRLPRPRPRPHCDPRP
  shrunken log2 fold change: 3.63

## RRIRFRPPRLPRPRPRPSKPPRP
  shrunken log2 fold change: -0.0327

## RRIRMRPPRLPRPRPRPFMGPRP
  shrunken log2 fold change: -0.0409

## RRIRGRPPRLPRPRPRPEECPRP
  shrunken log2 fold change: 0.0881

## RRIRWRPPRLPRPRPRPPDCPRP
  shrunken log2 fold change: -0.259

## RRIRNRPPRLPRPRPRPRRKPRP
  shrunken log2 fold change: 0.0625

## RRIRDRPPRLPRPRPRPLHRPRP
  shrunken log2 fold change: -0.375

## RRIRLRPPRLPRPRPRPTSVPRP
  shrunken log2 fold change: -0.0387

## RRIRHRPPRLPRPRPRPPKMPRP
  shrunken log2 fold change: -0.0472

## RRIRSRPPRLPRPRPRPYLPPRP
  shrunken log2 fold change: -0.552

## RRIRLRPPRLPRPRPRPHWTPRP
  shrunken log2 fold change: -0.015

## RRIRARPPRLPRPRPRPVDEPRP
  shrunken log2 fold change: 0.33

## RRIRKRPPRLPRPRPRPFSKPRP
  shrunken log2 fold change: -0.0535

## RRIRPRPPRLPRPRPRPSTQPRP
  shrunken log2 fold change: -0.355

## RRIRLRPPRLPRPRPRPCWEPRP
  shrunken log2 fold change: -0.197

## RRIRTRPPRLPRPRPRPRCYPRP
  shrunken log2 fold change: -0.429

## RRIRARPPRLPRPRPRPCGCPRP
  shrunken log2 fold change: 0.807

## RRIRSRPPRLPRPRPRPPARPRP
  shrunken log2 fold change: 0.876

## RRIRSRPPRLPRPRPRPWGGPRP
  shrunken log2 fold change: 0.27

## RRIRKRPPRLPRPRPRPDKIPRP
  shrunken log2 fold change: 0.0555

## RRIRRRPPRLPRPRPRPPRPPRP
  shrunken log2 fold change: 1.01

## RRIRSRPPRLPRPRPRPRCTPRP
  shrunken log2 fold change: 0.0731

## RRIRHRPPRLPRPRPRPRAKPRP
  shrunken log2 fold change: 1.14

## RRIRHRPPRLPRPRPRPGAMPRP
  shrunken log2 fold change: 0.392

## RRIRWRPPRLPRPRPRPWWCPRP
  shrunken log2 fold change: -0.0237

## RRIRQRPPRLPRPRPRPEYTPRP
  shrunken log2 fold change: -0.11

## RRIRDRPPRLPRPRPRPCFMPRP
  shrunken log2 fold change: 0.0118

## RRIRGRPPRLPRPRPRPGFYPRP
  shrunken log2 fold change: 0.512

## RRIRIRPPRLPRPRPRPFLWPRP
  shrunken log2 fold change: -0.0429

## RRIRCRPPRLPRPRPRPKQSPRP
  shrunken log2 fold change: 0.107

## RRIRERPPRLPRPRPRPRQCPRP
  shrunken log2 fold change: 0.123

## RRIRERPPRLPRPRPRPGCAPRP
  shrunken log2 fold change: 0.335

## RRIRKRPPRLPRPRPRPRAWPRP
  shrunken log2 fold change: 0.389

## RRIRHRPPRLPRPRPRPRQEPRP
  shrunken log2 fold change: 0.0426

## RRIRIRPPRLPRPRPRPGVNPRP
  shrunken log2 fold change: -0.319

## RRIRDRPPRLPRPRPRPYITPRP
  shrunken log2 fold change: -0.879

## RRIRWRPPRLPRPRPRPAKNPRP
  shrunken log2 fold change: 0.263

## RRIRARPPRLPRPRPRPMGPPRP
  shrunken log2 fold change: 0.161

## RRIRVRPPRLPRPRPRPVMDPRP
  shrunken log2 fold change: -0.324

## RRIRTRPPRLPRPRPRPRWSPRP
  shrunken log2 fold change: 0.0798

## RRIRLRPPRLPRPRPRPKPEPRP
  shrunken log2 fold change: 0.249

## RRIRLRPPRLPRPRPRPWIVPRP
  shrunken log2 fold change: -0.0907

## RRIRDRPPRLPRPRPRPAKGPRP
  shrunken log2 fold change: -0.0222

## RRIRTRPPRLPRPRPRPQWQPRP
  shrunken log2 fold change: 0.0822

## RRIRLRPPRLPRPRPRPCLYPRP
  shrunken log2 fold change: -0.247

## RRIRPRPPRLPRPRPRPCDGPRP
  shrunken log2 fold change: 0.0661

## RRIRERPPRLPRPRPRPRKGPRP
  shrunken log2 fold change: 0.0234

## RRIRDRPPRLPRPRPRPSQAPRP
  shrunken log2 fold change: 0.136

## RRIRNRPPRLPRPRPRPRLNPRP
  shrunken log2 fold change: -0.212

## RRIRFRPPRLPRPRPRPCWTPRP
  shrunken log2 fold change: -0.323

## RRIRFRPPRLPRPRPRPQCLPRP
  shrunken log2 fold change: -0.0767

## RRIRQRPPRLPRPRPRPWDDPRP
  shrunken log2 fold change: -0.00146

## RRIRNRPPRLPRPRPRPGPLPRP
  shrunken log2 fold change: 0.0198

## RRIRIRPPRLPRPRPRPDHFPRP
  shrunken log2 fold change: -0.0602

## RRIRWRPPRLPRPRPRPHEPPRP
  shrunken log2 fold change: 0.0371

## RRIRYRPPRLPRPRPRPQTVPRP
  shrunken log2 fold change: -0.261

## RRIRDRPPRLPRPRPRPMRLPRP
  shrunken log2 fold change: 0.674

## RRIRYRPPRLPRPRPRPSNIPRP
  shrunken log2 fold change: -1.25

## RRIRVRPPRLPRPRPRPTDPPRP
  shrunken log2 fold change: 0.328

## RRIRGRPPRLPRPRPRPAMDPRP
  shrunken log2 fold change: 0.491

## RRIRWRPPRLPRPRPRPLQAPRP
  shrunken log2 fold change: 0.721

## RRIRYRPPRLPRPRPRPGIMPRP
  shrunken log2 fold change: 0.0185

## RRIRWRPPRLPRPRPRPTHIPRP
  shrunken log2 fold change: -0.067

## RRIRLRPPRLPRPRPRPPNVPRP
  shrunken log2 fold change: 0.0883

## RRIRVRPPRLPRPRPRPFECPRP
  shrunken log2 fold change: -0.0624

## RRIRSRPPRLPRPRPRPYYSPRP
  shrunken log2 fold change: -0.318

## RRIRYRPPRLPRPRPRPYLDPRP
  shrunken log2 fold change: 0.0821

## RRIRERPPRLPRPRPRPKEIPRP
  shrunken log2 fold change: -0.357

## RRIRRRPPRLPRPRPRPMKLPRP
  shrunken log2 fold change: -0.123

## RRIRFRPPRLPRPRPRPTHEPRP
  shrunken log2 fold change: 0.171

## RRIRHRPPRLPRPRPRPVHHPRP
  shrunken log2 fold change: -0.0583

## RRIRYRPPRLPRPRPRPPIIPRP
  shrunken log2 fold change: -0.148

## RRIRGRPPRLPRPRPRPYIMPRP
  shrunken log2 fold change: -0.746

## RRIRSRPPRLPRPRPRPDSSPRP
  shrunken log2 fold change: -0.418

## RRIRRRPPRLPRPRPRPQRTPRP
  shrunken log2 fold change: 0.152

## RRIRLRPPRLPRPRPRPIEAPRP
  shrunken log2 fold change: -0.00911

## RRIRVRPPRLPRPRPRPNSSPRP
  shrunken log2 fold change: -0.0634

## RRIRYRPPRLPRPRPRPRVFPRP
  shrunken log2 fold change: -0.167

## RRIRFRPPRLPRPRPRPWEFPRP
  shrunken log2 fold change: -0.12

## RRIRRRPPRLPRPRPRPWQNPRP
  shrunken log2 fold change: -0.111

## RRIRIRPPRLPRPRPRPVLTPRP
  shrunken log2 fold change: -0.0413
